Source: patent US20030186329A1, “Use of substrate subtraction libraries to distinguish enzyme specificities” (The Scripps Research Institute, priority 1998, published 2003)

Columns and labels:
[1] = biological target: urokinase-type plasminogen activator (u-PA) (human) (UniProt P00749); assay: inhibition kinetics, residual enzymatic activity, indirect chromogenic assay
[2] = biological target: urokinase-type plasminogen activator (u-PA) (human) (UniProt P00749); assay: ratio of the rate constants for inhibition of u-PA and t-PA
[3] = biological target: tissue plasminogen activator (t-PA) (human) (UniProt P00750); assay: ratio of the rate constants for inhibition of t-PA and u-PA
[4] = biological target: urokinase-type plasminogen activator (u-PA) (human) (UniProt P00749); assay: ratio of the rate constants for inhibition of u-PA, wild type against variant
[5] = biological target: tissue plasminogen activator (t-PA) (human) (UniProt P00750); assay: inhibition kinetics, residual enzymatic activity
[6] = biological target: urokinase-type plasminogen activator (u-PA) (human) (UniProt P00749); assay: inhibition kinetics, residual enzymatic activity

Sequence of tissue plasminogen activator (t-PA) (human) (P00750 36-562 limits assumed): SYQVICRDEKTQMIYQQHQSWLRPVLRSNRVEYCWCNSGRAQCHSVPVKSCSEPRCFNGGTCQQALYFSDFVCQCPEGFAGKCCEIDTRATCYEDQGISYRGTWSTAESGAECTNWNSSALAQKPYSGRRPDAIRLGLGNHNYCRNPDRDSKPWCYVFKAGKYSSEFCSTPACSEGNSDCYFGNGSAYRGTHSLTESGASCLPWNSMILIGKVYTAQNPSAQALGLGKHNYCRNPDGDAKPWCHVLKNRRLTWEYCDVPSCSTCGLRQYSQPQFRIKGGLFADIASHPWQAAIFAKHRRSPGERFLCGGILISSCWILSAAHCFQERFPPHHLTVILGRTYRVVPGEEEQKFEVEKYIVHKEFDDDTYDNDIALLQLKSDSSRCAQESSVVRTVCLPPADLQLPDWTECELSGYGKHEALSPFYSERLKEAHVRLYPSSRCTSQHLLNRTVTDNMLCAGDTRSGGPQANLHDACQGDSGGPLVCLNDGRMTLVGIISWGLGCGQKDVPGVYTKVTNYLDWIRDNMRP

wild type plasminogen activator inhibitor type 1 (PAI-1) (from UniProt P05121 24-402) (other; other documents disagree on this pair)
second order rate constant for inhibition [1]: 1.9e+07 M⁻¹ s⁻¹ | fold specificity toward u-PA over t-PA [2]: 11.9 fold

PAI-1/P3R (from UniProt P05121 24-402)
t-PA/u-PA Selectivity [3]: 14 | fold reduction of activity against wild type PAI-1 [4]: 190 fold | second order rate constant for inhibition [5]: 1.4e+06 M⁻¹ s⁻¹ | second order rate constant for inhibition [6]: 100000 M⁻¹ s⁻¹

PAI-1/P4Q, P3R (from UniProt P05121 24-402)
t-PA/u-PA Selectivity [3]: 48 | second order rate constant for inhibition [5]: 1.4e+06 M⁻¹ s⁻¹ | second order rate constant for inhibition [6]: 29000 M⁻¹ s⁻¹
